Assay results reported in patent publication US20240383958A1, “APELIN RECEPTOR AGONISTS AND USES THEREOF” (VISTERRA, INC., priority 2023, published 2024).

How the values were obtained:
APJ-eGFP fusion protein = assay: Internalization assay, CHO-M1 cells expressing APJ-eGFP, high-content imaging; format: cell-based; conditions: lowest concentration at which maximum internalization was observed; 0.914 nM to 2000 nM
Procedure: In this example, the internalization of exemplary apelin receptor agonist was assessed. CHO-M1 cells expressing an APJ-eGFP fusion protein were stained and plated in a 96-well plate. Apelin receptor agonists were serially diluted and added to the wells at concentrations ranging from 0.914 nM to 2000 nM. The cells were later imaged using an Operetta CLS™ high-content analysis system. APJ-eGFP signal was measured in the membrane and cytoplasmic region, and the ratio of membrane signal to total signal was calculated (E ratio). An internalization score was assigned based on the lowest concentration of the compound at which maximum internalization was observed. The internalization score for each apelin receptor agonist was plotted against the EC50 values for cAMP signaling and beta-arrestin signaling as shown in FIG. 2 and FIG. 3.

[1] = Proteolysis during production detected using mass spectroscopy; format: physicochemical; conditions: proteolytic stability
Excerpt: Proteolysis during production was detected using mass spectroscopy, which provides insights into the proteolytic stability of the apelin receptor agonists.

[2] = target: T1, apelin receptor (AGTRL1) on CHO-K1 cells (UniProt P35414 1-380, limits assumed); assay: cell-based or functional assay
T1 sequence (looked up): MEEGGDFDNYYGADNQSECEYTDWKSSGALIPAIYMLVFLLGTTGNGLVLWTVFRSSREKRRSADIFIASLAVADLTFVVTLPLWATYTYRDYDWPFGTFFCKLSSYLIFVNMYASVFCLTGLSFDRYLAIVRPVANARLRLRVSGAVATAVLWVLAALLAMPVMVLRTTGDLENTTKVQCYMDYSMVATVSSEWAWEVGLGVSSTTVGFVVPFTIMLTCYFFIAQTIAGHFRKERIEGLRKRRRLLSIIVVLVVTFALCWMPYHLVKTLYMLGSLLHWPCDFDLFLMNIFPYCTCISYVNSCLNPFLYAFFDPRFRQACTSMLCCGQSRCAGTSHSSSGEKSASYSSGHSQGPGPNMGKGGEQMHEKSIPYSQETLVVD

Row | Molecule | Internalization Score (APJ-eGFP fusion protein) | Proteolysis During Production? [1] | further results
1 | CSCC[C@H](NC(=O)[C@@H]1CSSC[C@H](NC(=O)[C@H](CC(N)=O)NC(=O)[C@H](Cc2c[nH]cn2)NC(=O)[C@H](CCCCN)NC(=O)[C@H](CCCNC(=N)N)NC(=O)[C@H](CC(C)C)NC(=O)[C@@H](N)CCCCN)C(=O)N[C@@H](CC(C)C)C(=O)N[C@@H](CCC(N)=O)C(=O)N[C@@H](CCCNC(=N)N)C(=O)N[C@@H](CCCNC(=N)N)C(=O)N1)C(=O)N1CCC[C@H]1C(=O)N[C@@H](CC(C)C)C(=O)N[C@@H](Cc1c[nH]cn1)C(=O)N[C@@H](CO)C(=O)N[C@@H](CCCNC(=N)N)C(=O)N[C@H](C(=O)N1CCC[C@H]1C(=O)N[C@@H](Cc1ccccc1)C(=O)N1CCC[C@H]1C(=O)O)C(C)C [Elabela-22, elabela-22, reference compound] | 1 (>1000) |  | 
2 | ELA-A: Fc-linker fusion of wild-type elabela-22 KLRKHNCLQRRCMPLHSRVPFP (protein) MRAWIFFLLCLAGRALADKTHTSPPSPAPEAAGGPSVFLFPPKPKDTLMISRTPEVTCVVVDVSHEDPEVKFNWYVDGVEVHNAKTKPREEQYNSTYRVVSVLTVLHQDWLNGKEYKCKVSNKALPAPIEKTISKAKGQPREPQVYTLPPSREEMTKNQVNLTCLVKGFYPSDIAVEWESNGQPENNYKTTPPVLDSDGSFFLNSTLTVDKSRWQQGNVFSCSVMHEALHNHYTQKSLSLSPGKGGGGSGGGGSGGGGSKLRKHNCLQRRCMPLHSRVPFP | 3 (10-100) | No | 
3 | ELA-B: Fc-linker fusion of elabela analogue KLNKHNCLQRRCMPLHSRVPFP (R3N) (protein) MRAWIFFLLCLAGRALADKTHTSPPSPAPEAAGGPSVFLFPPKPKDTLMISRTPEVTCVVVDVSHEDPEVKFNWYVDGVEVHNAKTKPREEQYNSTYRVVSVLTVLHQDWLNGKEYKCKVSNKALPAPIEKTISKAKGQPREPQVYTLPPSREEMTKNQVNLTCLVKGFYPSDIAVEWESNGQPENNYKTTPPVLDSDGSFFLNSTLTVDKSRWQQGNVFSCSVMHEALHNHYTQKSLSLSPGKGGGGSGGGGSGGGGSKLNKHNCLQRRCMPLHSRVPFP | 3 (10-100) | No | 
4 | ELA-I: Fc-linker fusion of elabela analogue KLRKHNSLQRRYMPLHSRVPFP (C7S, C12Y) (protein) MRAWIFFLLCLAGRALADKTHTSPPSPAPEAAGGPSVFLFPPKPKDTLMISRTPEVTCVVVDVSHEDPEVKFNWYVDGVEVHNAKTKPREEQYNSTYRVVSVLTVLHQDWLNGKEYKCKVSNKALPAPIEKTISKAKGQPREPQVYTLPPSREEMTKNQVNLTCLVKGFYPSDIAVEWESNGQPENNYKTTPPVLDSDGSFFLNSTLTVDKSRWQQGNVFSCSVMHEALHNHYTQKSLSLSPGKGGGGSGGGGSGGGGSKLRKHNSLQRRYMPLHSRVPFP |  | Yes | 
5 | ELA-F: Fc-linker fusion of elabela analogue KLRKHNCLKRRCMPLHSRVPFP (Q9K) (protein) MRAWIFFLLCLAGRALADKTHTSPPSPAPEAAGGPSVFLFPPKPKDTLMISRTPEVTCVVVDVSHEDPEVKFNWYVDGVEVHNAKTKPREEQYNSTYRVVSVLTVLHQDWLNGKEYKCKVSNKALPAPIEKTISKAKGQPREPQVYTLPPSREEMTKNQVNLTCLVKGFYPSDIAVEWESNGQPENNYKTTPPVLDSDGSFFLNSTLTVDKSRWQQGNVFSCSVMHEALHNHYTQKSLSLSPGKGGGGSGGGGSGGGGSKLRKHNCLKRRCMPLHSRVPFP | 3 (10-100) | No | 
6 | ELA-C: Fc-linker fusion of elabela analogue KLRKHNCLQRRCMILHSRVPFP (P14I) (protein) MRAWIFFLLCLAGRALADKTHTSPPSPAPEAAGGPSVFLFPPKPKDTLMISRTPEVTCVVVDVSHEDPEVKFNWYVDGVEVHNAKTKPREEQYNSTYRVVSVLTVLHQDWLNGKEYKCKVSNKALPAPIEKTISKAKGQPREPQVYTLPPSREEMTKNQVNLTCLVKGFYPSDIAVEWESNGQPENNYKTTPPVLDSDGSFFLNSTLTVDKSRWQQGNVFSCSVMHEALHNHYTQKSLSLSPGKGGGGSGGGGSGGGGSKLRKHNCLQRRCMILHSRVPFP | 2 (100-1000) | No | 
7 | ELA-G: Fc-linker fusion of elabela analogue KLRKHNCLQRRCMPLHSYVPFP (R18Y) (protein) MRAWIFFLLCLAGRALADKTHTSPPSPAPEAAGGPSVFLFPPKPKDTLMISRTPEVTCVVVDVSHEDPEVKFNWYVDGVEVHNAKTKPREEQYNSTYRVVSVLTVLHQDWLNGKEYKCKVSNKALPAPIEKTISKAKGQPREPQVYTLPPSREEMTKNQVNLTCLVKGFYPSDIAVEWESNGQPENNYKTTPPVLDSDGSFFLNSTLTVDKSRWQQGNVFSCSVMHEALHNHYTQKSLSLSPGKGGGGSGGGGSGGGGSKLRKHNCLQRRCMPLHSYVPFP | 1 (>1000) | No | 
8 | ELA-I (Fc fusion) DKTHTSPPSPAPEAAGGPSVFLFPPKPKDTLMISRTPEVTCVVVDVSHEDPEVKFNWYVDGVEVHNAKTKPREEQYNSTYRVVSVLTVLHQDWLNGKEYKCKVSNKALPAPIEKTISKAKGQPREPQVYTLPPSREEMTKNQVNLTCLVKGFYPSDIAVEWESNGQPENNYKTTPPVLDSDGSFFLNSTLTVDKSRWQQGNVFSCSVMHEALHNHYTQKSLSLSPGKGGGGSGGGGSGGGGSKLRKHNSLQRRYMPLHSRVPFP |  |  | beta-Arrestin EC50 (nM) Exp. 1 [2]: 17.3 nM; beta-Arrestin EC50 (nM) Exp. 2 [2]: 150 nM; cAMP EC50 (nM) Exp. 1 [2]: 22.9 nM; cAMP EC50 (nM) Exp. 2 [2]: 3.19 nM
9 | ELA-J (Fc fusion) DKTHTSPPSPAPEAAGGPSVFLFPPKPKDTLMISRTPEVTCVVVDVSHEDPEVKFNWYVDGVEVHNAKTKPREEQYNSTYRVVSVLTVLHQDWLNGKEYKCKVSNKALPAPIEKTISKAKGQPREPQVYTLPPSREEMTKNQVNLTCLVKGFYPSDIAVEWESNGQPENNYKTTPPVLDSDGSFFLNSTLTVDKSRWQQGNVFSCSVMHEALHNHYTQKSLSLSPGKGGGGSGGGGSGGGGSKLRKHNCLQERCMPLHSRVPFP |  |  | beta-Arrestin EC50 (nM) Exp. 1 [2]: 73.7 nM; cAMP EC50 (nM) Exp. 1 [2]: 18.6 nM; cAMP EC50 (nM) Exp. 2 [2]: 133 nM
10 | APL-B: Fc-linker fusion of apelin analogue QRPRLSHKGPMVF (P12V) (protein) MRAWIFFLLCLAGRALADKTHTSPPSPAPEAAGGPSVFLFPPKPKDTLMISRTPEVTCVVVDVSHEDPEVKFNWYVDGVEVHNAKTKPREEQYNSTYRVVSVLTVLHQDWLNGKEYKCKVSNKALPAPIEKTISKAKGQPREPQVYTLPPSREEMTKNQVNLTCLVKGFYPSDIAVEWESNGQPENNYKTTPPVLDSDGSFFLNSTLTVDKSRWQQGNVFSCSVMHEALHNHYTQKSLSLSPGKGGGGSGGGGSGGGGSQRPRLSHKGPMVF | 2 (100-1000) | No | 
11 | APL-F: Fc-linker fusion of apelin analogue QRPRLSHKGPAPY (M11A, F13Y) (protein) MRAWIFFLLCLAGRALADKTHTSPPSPAPEAAGGPSVFLFPPKPKDTLMISRTPEVTCVVVDVSHEDPEVKFNWYVDGVEVHNAKTKPREEQYNSTYRVVSVLTVLHQDWLNGKEYKCKVSNKALPAPIEKTISKAKGQPREPQVYTLPPSREEMTKNQVNLTCLVKGFYPSDIAVEWESNGQPENNYKTTPPVLDSDGSFFLNSTLTVDKSRWQQGNVFSCSVMHEALHNHYTQKSLSLSPGKGGGGSGGGGSGGGGSQRPRLSHKGPAPY | 1 (>1000) | No | 
12 | APL-G: Fc-linker fusion of apelin analogue QRPRLSHKGPMAF (P12A) (protein) MRAWIFFLLCLAGRALADKTHTSPPSPAPEAAGGPSVFLFPPKPKDTLMISRTPEVTCVVVDVSHEDPEVKFNWYVDGVEVHNAKTKPREEQYNSTYRVVSVLTVLHQDWLNGKEYKCKVSNKALPAPIEKTISKAKGQPREPQVYTLPPSREEMTKNQVNLTCLVKGFYPSDIAVEWESNGQPENNYKTTPPVLDSDGSFFLNSTLTVDKSRWQQGNVFSCSVMHEALHNHYTQKSLSLSPGKGGGGSGGGGSGGGGSQRPRLSHKGPMAF | 3 (10-100) | No | 
13 | APL-E: Fc-linker fusion of apelin analogue QRPRLSHKGPHPF (M11H) (protein) MRAWIFFLLCLAGRALADKTHTSPPSPAPEAAGGPSVFLFPPKPKDTLMISRTPEVTCVVVDVSHEDPEVKFNWYVDGVEVHNAKTKPREEQYNSTYRVVSVLTVLHQDWLNGKEYKCKVSNKALPAPIEKTISKAKGQPREPQVYTLPPSREEMTKNQVNLTCLVKGFYPSDIAVEWESNGQPENNYKTTPPVLDSDGSFFLNSTLTVDKSRWQQGNVFSCSVMHEALHNHYTQKSLSLSPGKGGGGSGGGGSGGGGSQRPRLSHKGPHPF | 1 (>1000) | Yes | 
